Earlier results, collected in PMC6143667.

Target: PKA catalytic subunit (UniProt P17612)

- Kd: 0.1 nM
Substance: PKA regulatory subunit RII (from UniProt P31323)
